What was measured:
Experiment in all cases: native gel or EMSA; Blue Native PAGE, gradient from 3.5 to 16% polyacrylamide, of the IEC fractions of affinity purified PSII
[1] = target: PSII with the protein composition of mature PSII, isolated via CP43-TS-Tag (T. elongatus (endogenous in T. elongatus BP-1) | Thermosynechococcus elongatus BP-1) (UniProt P0A444)
[2] = target: PSII with the protein composition of mature PSII, isolated via His-tagged CP43 (T. elongatus (endogenous in T. elongatus) | Thermosynechococcus elongatus) (UniProt P0A444)
[3] = target: Psb27-PSII complex isolated via CP43-TS-Tag (PSII with Psb27, without the extrinsic subunits) (T. elongatus (endogenous in T. elongatus BP-1) | Thermosynechococcus elongatus BP-1) (UniProt P0A444)
[4] = target: Psb27-PSII complex isolated via His-tagged CP43 (PSII with Psb27, without the extrinsic subunits) (T. elongatus (endogenous in T. elongatus) | Thermosynechococcus elongatus) (UniProt P0A444)

Substance: PSII with the protein composition of mature PSII, isolated via CP43-TS-Tag (from UniProt P0A444 1-344; Q8CM25 1-352; Q8DIF8 1-461; Q8DIQ1 1-510; P0A431 27-272; Q9F1L5 31-134; P0A386 27-163) (complex)
- stoichiometry N [1]: 2

Substance: PSII with the protein composition of mature PSII, isolated via His-tagged CP43 (from UniProt P0A444 1-344; Q8CM25 1-352; Q8DIF8 1-461; Q8DIQ1 1-510; P0A431 27-272; Q9F1L5 31-134; P0A386 27-163) (complex)
- stoichiometry N [2]: 2

Substance: Psb27-PSII complex isolated via CP43-TS-Tag (PSII with Psb27, without the extrinsic subunits) (from UniProt P0A444 1-344; Q8CM25 1-352; Q8DIF8 1-461; Q8DIQ1 1-510; Q8DG60 22-134)
- stoichiometry N [3]: 2

Substance: Psb27-PSII complex isolated via His-tagged CP43 (PSII with Psb27, without the extrinsic subunits) (from UniProt P0A444 1-344; Q8CM25 1-352; Q8DIF8 1-461; Q8DIQ1 1-510; Q8DG60 22-134)
- stoichiometry N [4]: 2
